Experimental data reported in US7105156 (University of California, dated 2006).

Molecular target: T1, p56^RB protein (amino-truncated 56 kDa RB protein, C-terminal half of the RB protein) (Homo sapiens (Human), UniProt P06400 379-928)
T1 sequence: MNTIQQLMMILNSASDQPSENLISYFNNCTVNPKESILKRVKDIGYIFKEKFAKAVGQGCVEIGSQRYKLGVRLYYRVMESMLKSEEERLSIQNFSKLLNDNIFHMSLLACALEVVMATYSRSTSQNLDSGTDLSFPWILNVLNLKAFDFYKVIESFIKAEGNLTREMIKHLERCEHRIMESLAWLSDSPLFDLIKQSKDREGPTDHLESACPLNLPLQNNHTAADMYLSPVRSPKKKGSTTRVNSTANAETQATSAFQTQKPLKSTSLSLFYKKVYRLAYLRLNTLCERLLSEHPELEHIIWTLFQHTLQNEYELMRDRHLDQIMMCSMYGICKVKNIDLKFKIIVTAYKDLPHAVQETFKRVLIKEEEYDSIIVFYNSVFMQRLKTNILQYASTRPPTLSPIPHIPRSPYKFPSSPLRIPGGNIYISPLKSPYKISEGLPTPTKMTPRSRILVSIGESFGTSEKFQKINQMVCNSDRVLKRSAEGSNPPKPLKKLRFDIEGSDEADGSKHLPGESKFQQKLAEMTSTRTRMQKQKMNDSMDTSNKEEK
Test: cell-based or functional assay

B1: T peptide (SV40 T-antigen peptide, amino acids 101-118) (peptide)
peptide: ENLFCSEEMPSSDDEATA
For B1, the “percent of injected cells incorporating BrdU (Saos-2 cells, 5 mM T peptide, 500 to 1000-fold molar excess over p56^RB)” value was roughly 70%.
